Reference: the Human Domainome abundance scans (Beltran et al. 2025)

B1: Cold shock protein CspB, residues 1 to 66; numbered along this chain, P41016 (parent)
chain: MQRGKVKWFNNEKGYGFIEVEGGSDVFVHFTAIQGEGFKTLEEGQEVSFEIVQGNRGPQAANVVKL

Variants of: B1
Test: abundance fitness (aPCA) (normalised: wild type 0, dead -1); higher = more abundant; growth selection in yeast, the domain comes from the species named
Settings: Bacillus caldolyticus

Abundance fitness: each site, then its substitutions
Y15: A -0.233; G -0.285; F -0.047; K -0.189; P -0.885; N -0.256; L -0.117; H -0.089; S -0.22; M -0.138; W 0.023; E -0.188; D -0.332; R -0.227; Q -0.19; C -0.186; V -0.155
G16: D -0.927; N -0.98; V -0.847; T -0.954; F -0.937; H -1; I -0.911; W -1.18; R -1.08; A -0.696; Y -0.946; C -0.861; L -0.901; E -1.16; K -1.08; M -0.965; S -1.01
E19: D 0.006; I -0.021; V 0.002; F -0.048; C 0.021; A 0.05; L 0.019; N -0.003; Q 0.009; K 0.031; P -0.316; G 0.023; T -0.029; W -0.011; R 0.008; M 0; H 0.016; Y -0.075; S 0.016
F17: K -0.138; Q -0.161; H -0.151; Y -0.192; G -0.236; T -0.126; N -0.171; M -0.139; S -0.171; V -0.165; E -0.172; P -0.977; R -0.132; L -0.171; A -0.159; D -0.558; C -0.18; I -0.128; W -0.084
G14: R -0.062; Y -0.445; I -0.902; P -0.91; S -0.123; E -0.359; C -0.13; M -0.202; T -0.383; D -0.468; A -0.175; V -0.778; F -0.484; H -0.047; L -0.24; K -0.06; Q -0.196
N11: C -0.051; T -0.025; E -0.027; H -0.027; L -0.003; I -0.065; K -0.047; Q -0.138; Y -0.111; G -0.071; F -0.052; R -0.017; S -0.033; A -0.052; M -0.042; D 0.028
E12: T 0.034; M 0.004; P 0.036; R 0.049; N 0.042; A 0.036; I -0.198; K 0.077; D -0.021; V -0.064; G -0.02; H 0.009; Q 0.017; S 0.022; C -0.004; F 0.006; L 0.017; W 0.005; Y 0.016
I18: A -0.272; Q -1.12; H -0.812; F -0.297; T -0.721; D -1.08; G -1.07; W -0.973; L 0.015; P -1.19; M -0.208; N -0.85; K -0.926; C -0.164; Y -1.07
K13: Q -0.072; W -0.089; S -0.044; Y -0.03; V -0.044; E -0.133; P -0.154; H 0; C -0.071; L 0.014; N -0.106; I -0.065; M -0.019; F -0.1; R -0.007; A -0.078; D -0.09; G -0.131
V20: H 0.094; F -0.092; N -0.028; K 0.055; E -0.002; M -0.018; A -0.003; L 0; D -0.054; I -0.014
